The values that follow come from paper PMC5738261 (Journal of molecular biology, 2017).

Where two headings read alike, the source gives them in different places.

The target in data set [1] is T1, A3F-CD2 E251A K352A/K355A/K358A (human, UniProt Q8IUX4 190-373, E251A;K352A;K355A;K358A). As to the kind of experiment: EMSA. For orientation: In EMSA bound probe runs differently from free probe, usually more slowly.
Data set [2] concerns the molecule itself. As to the kind of experiment: dynamic light scattering.
Data set [3] concerns the molecule itself. As to the kind of experiment: dynamic light scattering. This is another data set of the same source.
In data set [4] the target is T1, A3F-CD2 E251A K352A/K355A/K358A. The experiment in a line: EMSA. This is another data set of the same source.
For the next data set, the target named is A3F-CD2 WT (human, UniProt Q8IUX4 190-373). As to the kind of experiment: X-ray crystallography.

As to AUUAUUAUUAUUUAUCCCUAUUUAUAUUUAUUGUUAUUGUUAUUGUUAUA (ssRNA) [50 nt RNA], in data set [1], the binding result was “no binding”.

B1: wild-type hA3F-CD2 (APOBEC3F C-terminal catalytic domain, residues 190-373) (domain or fragment, human, UniProt Q8IUX4 190-373, looked up)
chain: NPMEAMYPHIFYFHFKNLRKAYGRNESWLCFTMEVVKHHSPVSWKRGVFRNQVDPETHCHAERCFLSWFCDDILSPNTNYEVTWYTSWSPCPECAGEVAEFLARHSNVNLTIFTARLYYFWDTDYQEGLRSLSQEGASVEIMGYKDFKYCWENFVYNDDEPFKPWKGLKYNFLFLDSKLQEILE
The stoichiometry N is a count of units in the complex or per binding partner. In the case of B1, the “stoichiometry N” value in the data set “dynamic light scattering [2]” worked out at 2; in “dynamic light scattering [3]” it was 4. Consider TTTTTTTTTT (ssDNA) [10 nt poly-dT (FAM)], for which the binding result in data set [4] is recorded as “no binding”. As to TTTTTTTTTT (ssDNA) [10 nt poly-dT (crystal, DLS)], the binding result in the data set with A3F-CD2 WT is given as “binds”.
